± gives the half width of the 95% confidence interval.
Key:
[1] = folding stability dG unfold from trypsin proteolysis; higher = more stable
How it was run: (§1)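 Bayesian fitting of sequencing counts gave K50 for each design. Unfolding free energy followed by setting this against a sequence-predicted unfolded-state K50 and a shared folded-state K50, either per protease or with trypsin and chymotrypsin combined. The designs, under 80 residues and lacking cysteine, were digested in a PA-tagged cDNA display format at 11 threefold-diluted protease concentrations and without protease, and only those with AlphaFold2 dimer inter-PAE above 15 were kept.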

[2] = folding stability dG unfold from chymotrypsin proteolysis; higher = more stable
How it was run: as §1

[3] = folding stability dG unfold (combined trypsin and chymotrypsin); higher = more stable
How it was run: as §1

Sequence	folding stability dG unfold [1] [kcal/mol]	folding stability dG unfold [2] [kcal/mol]	folding stability dG unfold [3] [kcal/mol]
SAGGSAGGSEKPVLIVKVKVKNPKTKKWEEKTIEVPEGVKTPEEVAKALEKEFGDVVKVEILPSAGGSAGGS [r12_942_TrROS_Hall]	1.25 ± 0.064	1.86 ± 0.11	1.63 ± 0.19
SAGGSAGGSEKTLVTRTPDGYLLTLTEFTLPDGSKVTLATITFPNTGKTVTVPASLVPADATGSAGGSAGGS [r12_797_TrMRF]	1.45 ± 0.028	3.061 ± 0.011	2.63 ± 0.041
SAGGSAGGSELPDGPALVVLPINSKPVVALAKVNSTGKIEVYIPNPGKKFTFDLDQAEVYPVLSAGGSAGGS [r12_782_TrMRF]	-0.1 ± 0.082	0.533 ± 0.1	0.35 ± 0.061
SAGGSAGGSEVEITVTETEDTVTVTIRFKDTGKTVTITVPKDMTPEEVLARAKELLKKLGIEPSAGGSAGGS [r12_764_TrROS_Hall]	3.91 ± 0.18	3.75 ± 0.16	3.88 ± 0.25
SAGGSAGGSEVKTKVTLKREDPGSASTSTVDLPKEEAEKLIKEGKEIKLPSGKKASFTKVVPESAGGSAGGS [r12_432_JUSTAS]	-0.195 ± 0.11	-0.18 ± 0.24	-0.148 ± 0.2
SAGGSAGGSEYYIYIQIDKNGKIEIVDVVPPGEPMEDMPPEQYDHTIMFPFESPEDALAEILKSAGGSAGGS [r12_452_TrROS]	0.606 ± 0.019	0.731 ± 0.022	0.719 ± 0.075
SAGGSAGGSFKVPGGYKVVSVEEDPENKTVEITFADGSKLTIDIEDPNVFKPVKVEAPEGFDVSAGGSAGGS [r12_149_TrMRF]	1.55 ± 0.081	2.04 ± 0.038	1.89 ± 0.054
SAGGSAGGSGAEEIAKALKELGVKKVEITVERNENGELTVTVRVEVEAPPPKVEVKTEEELKKSAGGSAGGS [r12_246_TrROS_Hall]	0.527 ± 0.1	1.01 ± 0.14	0.939 ± 0.21
SAGGSAGGSGDGDYKNDPNGEQERKPKPPPVPPILVFKVELDIDANGNLDLSPDLGWFPPDAISAGGSAGGS [r12_1027_TrROS]	1.55 ± 0.13	1.03 ± 0.093	1.42 ± 0.14
SAGGSAGGSGDSITLPVSVPKGSELVIENLSTNKKVIIPDDGPVTITIDKGKDGLKISAEVEKSAGGSAGGS [r12_919_TrMRF]	-0.398 ± 0.16	0.106 ± 0.053	-0.0498 ± 0.25
SAGGSAGGSGEVLLLSANSFSFSEGDGLLVVVNLPNGGYVVLPFKKGDLNLNLPSSGYSEFFGSAGGSAGGS [r12_746_TrMRF]	1.3 ± 0.034	1.79 ± 0.046	1.59 ± 0.058
SAGGSAGGSGFPVRLKIWDPDETYTYTVPMDPDNVQKFAEELGEKNFNIETEPNGWATITIPKSAGGSAGGS [r12_292_TrROS]	0.471 ± 0.08	0.95 ± 0.15	0.713 ± 0.22
SAGGSAGGSGGKPLLIFTAMNGPEAEELVKKLLEEGGAGPIVAVVIPAPKDDPLFKEFFEKLKSAGGSAGGS [r12_649_TrMRF]	0.935 ± 0.073	1.47 ± 0.053	1.34 ± 0.14
SAGGSAGGSGGMMPVTLTITPVNPPGASTSSTTIPVNFTSPEEAAAAKEKIAAELPSNATVTGSAGGSAGGS [r20_211_JUSTAS]	0.442 ± 0.0095	-1.1 ± 0.4	0.0375 ± 0.072
SAGGSAGGSGIPVEPIPVRNPKGEIVEVIRFPEDFALVVFPSGERALLRGPELSLRDVVFFPLSAGGSAGGS [r12_491_TrMRF]	0.675 ± 0.023	0.305 ± 0.054	0.533 ± 0.055
SAGGSAGGSGITPAAKKIAAEIEKKYPNEKIKVEEELLPNGYLKIKVTTDNGKKYEIIIKVGGSAGGSAGGS [r20_210_TrMRF]	2.51 ± 0.12	3.51 ± 0.053	3.23 ± 0.077

Sequence	folding stability dG unfold [1] [kcal/mol]	folding stability dG unfold [2] [kcal/mol]	folding stability dG unfold [3] [kcal/mol]
SAGGSAGGSGMAVSVSVTPVRLPDGSVRLVISFSSGSTVVLDLPESEWTPEQVEALVAELVSASAGGSAGGS [r12_218_JUSTAS]	3.82 ± 0.077	3.9 ± 0.048	3.89 ± 0.058
SAGGSAGGSGMSPEALAIKEQVKAEHPDLRVEVKEKILPNGTLEITVTFDDGTTETYTIPIGESAGGSAGGS [r20_210_JUSTAS]	3.01 ± 0.13	3.36 ± 0.048	3.29 ± 0.086
SAGGSAGGSGMTAEEAREKKVAELKAQGYTPVKVEVVETRTDPATGKVTTKIKIEYKSPKGLTSAGGSAGGS [r20_46_JUSTAS]	0.0908 ± 0.081	0.333 ± 0.12	0.275 ± 0.14
SAGGSAGGSGMTVVTLEAEPETAEEAVAAAIQAIRDALPADETIASVEVSFDPATGKVTVVVESAGGSAGGS [r12_308_JUSTAS]	0.757 ± 0.051	2.01 ± 0.042	1.8 ± 0.12
SAGGSAGGSGMVEEEEYEDPATGVRTRTTTTYLPNGTVVRTPVVYTPDRPVEEVPTVTPIPSGSAGGSAGGS [r20_88_JUSTAS]	1.04 ± 0.075	0.62 ± 0.13	0.958 ± 0.21
SAGGSAGGSGPELRPPDVPSTTVPLKVSPEEAKEILKELLGLPEDVEVPFGSIDPATGVITLVSAGGSAGGS [r12_815_JUSTAS]	1.25 ± 0.091	0.881 ± 0.042	1.03 ± 0.12
SAGGSAGGSGPKPRLIKLTFLLEPGKVEEFAQALRDAGFEIVSVEVEPLPDGGERATVTVRIDSAGGSAGGS [r12_905_TrMRF]	2.81 ± 0.093	3.82 ± 0.07	3.56 ± 0.062
SAGGSAGGSGPNIKVSSSTSTYTLPNGKKVTVKTIVIETENSKYLIVVLTDPNGKSIVFIKPLSAGGSAGGS [r12_213_TrMRF]	3.21 ± 0.23	3.92 ± 0.15	3.89 ± 0.28
SAGGSAGGSGSLLEKLGLEPNSTVTVTVTPEEAEKIRAEPRVKEIKREPTPEDTYLYTITVVASAGGSAGGS [r12_750_JUSTAS]	-0.705 ± 0.32	0.0205 ± 0.2	-0.302 ± 0.28
SAGGSAGGSGSMEFTIDDEDLRIEIKFLPGGKVEITIWDPTNNVPLKTIETEPEEIEEVIEKLSAGGSAGGS [r20_129_JUSTAS]	2.18 ± 0.17	2.05 ± 0.048	2.15 ± 0.082
SAGGSAGGSGSMSIPVGSPEALREYLRERLPPEADLSEEELEALVEELLAKASIDSDGRLHLASAGGSAGGS [r12_983_JUSTAS]	1.65 ± 0.039	2.207 ± 0.012	2.05 ± 0.053
SAGGSAGGSGSMTTTTDPNSDITVSSIGSPSGPPVTATLNPKTGTVTVTVGGTPVTIPLDALSSAGGSAGGS [r12_650_JUSTAS]	0.331 ± 0.059	1.32 ± 0.034	0.987 ± 0.045
SAGGSAGGSGSSSLLEETTDASGVRHLLTLVRLPGGKVLLVTTTVYPSGESTTTTEETDGSLLSAGGSAGGS [r12_995_JUSTAS]	2.58 ± 0.06	1.53 ± 0.036	2.11 ± 0.059
SAGGSAGGSGSSSMPVTVEVKPLATEVDPSNGLVTVTELVTVTRGDTTTLTVTTTTLPPGAPASAGGSAGGS [r12_1010_JUSTAS]	1.16 ± 0.027	0.00037 ± 0.064	0.591 ± 0.098
SAGGSAGGSGSSTSANAGGIVTSSSTVPLPPDTRPVSVSTSTPSSKPVKTTVLPDKTVTTPLGSAGGSAGGS [r12_994_JUSTAS]	1.01 ± 0.035	1.55 ± 0.028	1.38 ± 0.048

Reference: the supplement of paper PMC12764529
